Entries after “also recorded” stand apart in the source; their conditions may differ.
T1: human CD39, membrane-bound, as expressed on cells (human, UniProt P49961 1-510)
T1 construct: On OAW42 cells, on monocytes and B cells of patients, in patients' tumour tissue, and in tissues of human CD39 knock-in mice; also called mCD39
T1 sequence: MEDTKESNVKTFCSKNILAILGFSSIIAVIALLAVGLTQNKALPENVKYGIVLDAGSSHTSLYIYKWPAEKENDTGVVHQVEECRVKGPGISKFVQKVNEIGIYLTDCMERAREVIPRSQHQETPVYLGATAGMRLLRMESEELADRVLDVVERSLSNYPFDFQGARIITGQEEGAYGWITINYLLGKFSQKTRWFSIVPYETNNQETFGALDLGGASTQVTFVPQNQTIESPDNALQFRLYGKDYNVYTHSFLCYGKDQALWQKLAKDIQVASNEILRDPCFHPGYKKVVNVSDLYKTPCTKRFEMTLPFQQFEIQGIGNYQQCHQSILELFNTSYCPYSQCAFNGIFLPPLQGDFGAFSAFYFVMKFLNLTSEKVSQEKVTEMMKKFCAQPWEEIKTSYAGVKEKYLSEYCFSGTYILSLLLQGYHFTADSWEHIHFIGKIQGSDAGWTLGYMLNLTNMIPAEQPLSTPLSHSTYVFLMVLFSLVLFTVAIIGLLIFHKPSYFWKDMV

T2: CD39 enzymatic activity (Homo sapiens, UniProt P49961)
T2 construct: genetically modified to express human CD39 in place of its murine counterpart mouse CD39; from tissue; host or cells: tissues (MCA205 tumours) of huCD39KI mice treated with moIPH5201
T2 sequence (P49961 1-510): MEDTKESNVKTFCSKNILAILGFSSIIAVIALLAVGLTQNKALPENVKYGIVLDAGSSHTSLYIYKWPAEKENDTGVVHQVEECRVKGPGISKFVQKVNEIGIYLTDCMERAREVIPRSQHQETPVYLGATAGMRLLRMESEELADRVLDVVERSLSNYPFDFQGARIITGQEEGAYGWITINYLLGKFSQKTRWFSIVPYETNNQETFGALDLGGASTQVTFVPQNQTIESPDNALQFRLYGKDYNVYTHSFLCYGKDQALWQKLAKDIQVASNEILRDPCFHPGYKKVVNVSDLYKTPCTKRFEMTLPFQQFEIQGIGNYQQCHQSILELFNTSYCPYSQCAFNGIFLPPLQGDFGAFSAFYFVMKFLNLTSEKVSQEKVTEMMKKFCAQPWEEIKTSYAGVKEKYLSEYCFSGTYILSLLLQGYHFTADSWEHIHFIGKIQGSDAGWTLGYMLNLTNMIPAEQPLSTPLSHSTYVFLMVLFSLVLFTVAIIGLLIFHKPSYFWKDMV


Experiments:
[1] = molecular target: T1, human CD39, membrane-bound, as …; test: indirect response PD model (inhibition on Kin) fitted to free mCD39 on monocytes of treated patients; flow cytometry, free CD39 detected with a labelled antibody having the VH and VL of IPH5201
Excerpt: PK/PD modelling and simulation were used to guide selection of doses. IPH5201 PK data from 45 patients and PD data of free membrane CD39 (mCD39) occupancy on monocytes from 43 patients were available. A population PK model was developed with IPH5201 PK best described as a 2-compartment model with parallel linear and saturatable kinetics.
An indirect response PD model (inhibition on Kᵢₙ) was then built to describe the relationship between IPH5201 concentrations and free mCD39 on monocytes (FIG. 10). The model accurately predicted CD39free+ of monocytes (%). […] The final indirect response model was then used for parametric simulation.
To assess free CD39 on monocytes and B cells, blood samples are spiked with an antibody having the VH and VL of IPH5201 and a mouse Fc domain and labelled with a fluorochrome. A second non-competing anti-CD39 monoclonal antibody labelled with a distinct fluorochrome is used to bind to a site on CD39 distinct from the capture antibody. CD14, CD19 and CD45 are detected by incubation with anti-CD14, CD19 and CD45 monoclonal antibodies each labelled with a distinct fluorochrome. Binding is detected by flow cytometry.

CD39 enzymatic activity = molecular target: T2, CD39 enzymatic activity; test: Wachstein-Meisel CD39 enzyme assay on tissues of treated mice; type: in vivo, huCD39KI mice; details: tissues from molPH5201-treated animals; brown color indicates enzyme activity
Protocol: (§1) Human CD39 expression on MCA205 tumors harvested on day 16 post engraftment was evaluated by IHC with EPR20627 clone from Abcam B&C. MCA205 tumors were engrafted in huCD39KI mice. On day 7 and 14 post tumor implantation, they were treated with molPH5201 (20 mg/kg) or isotype control. On day 16, tumors were harvested. Results are shown in FIG. 4, left hand panel, showing that a significant percentage of cells express CD39.
Blockade of CD39 enzymatic activity was determined using the Wachstein-Meisel CD39 enzyme assay (brown color indicates enzyme activity).

[2] = system: adenosine in MCA205 tumors; test: Intratumoral adenosine in MCA205 tumors in huCD39KI mice (LC-MS/MS); type: in vivo, human CD39 knock-in (huCD39KI) mice; details: molPH5201 20 mg/kg on day 7 and 14; tumors harvested day 16; vs isotype control; FIG. 4
Protocol: Expression of human CD39 in MCA205 tumors engrafted in human CD39 knock-in (huCD39KI) mice was assessed, followed by measure of intratumoral levels of adenosine after in vivo treatment with molPH5201, an antibody having the VH and VL or SEQ ID NO NOS: 8 and 9 and murine constant domains including an Fc domain with amino acid substitutions to eliminate binding to mouse Fcγ receptors, in order to evaluate the reduction of adenosine levels in tumors by molPH5201 can reduce in vivo.
as §1
Quantification of adenosine in the harvested MCA205 tumors was performed using pre-column derivatization and liquid chromatography-mass spectrometry (LC-MS/MS) as described by Goodwin et al. 2019 Anal Biochem 568:78-88.

MC38 cancer cell line = test: MC38 tumor growth in huCD39KI mice (gemcitabine +/- anti-PD-L1 +/- molPH5201); type: in vivo, human CD39 knock-in (huCD39KI) mice
Protocol: In vivo experiments were performed in human CD39 knock-in (huCD39KI) mice, genetically modified to express human CD39 in place of its murine counterpart mouse CD39. These mice were sub-cutaneously (s.c.) engrafted with the MC38 cancer cell line. Mice bearing established tumors were dosed with isotype control (IC) antibodies, anti-human CD39 antibody (molPH5201, described above), gemcitabine chemotherapy and anti-mouse PD-L1 antibody (an antibody that binds murine PD-L1 having an Fc domain with amino acid substitutions to eliminate binding to mouse Fcγ receptors.
Male and female huCD39KI mice were engrafted subcutaneously (s.c.) with 1×10^6 MC38 cancer cells. Treatments were initiated after mouse randomization. Mice were treated twice a week for two weeks with gemcitabine (25 mg/kg) or PBS (at day 8, 11, 15 and 18 after cell engraftment) and once a week for four weeks with either anti-human CD39 antibody (molPH5201) or the corresponding isotype control (IC) antibody (400 μg/mouse).
Randomization of mice into four groups was performed on day 7 post tumor cell engraftment, at a mean tumor volume of 72 mm^3±27 mm^3 with individual tumor volumes comprised between 37 and 130 mm^3.
(§2) Male and female huCD39KI mice were engrafted s.c. with 1×10^6 MC38. Treatments were initiated after mouse randomization. Mice were treated twice a week for two weeks with gemcitabine (25 mg/kg) or PBS, twice a week for three weeks with either anti-mouse PD-L1 antibody or the corresponding IC antibody (200 μg/mouse) and once a week for four or five weeks depending on the experiment with either anti-human CD39 antibody (molPH5201) or the corresponding IC antibody (400 μg/mouse). Mouse randomization into five groups was performed on day 7 post tumor cell engraftment at a mean tumor volume of 62 mm^3±23 mm^3 with individual tumor volumes comprised between 31 and 117 mm^3.
as §2, with “As in Experiment 1, male” for “Male”, “64” for “62”, “115” for “117”
as §2, with “As in Experiments 1 and 2, male” for “Male”, “engraftment,” for “engraftment”, “74 mm^3±21” for “62 mm^3±23”, “40” for “31”, “121” for “117”
The three experiments were pooled and results are shown in FIG. 9, showing Tumor growth of MC38 tumor in huCD39KI mice post treatment with gemcitabine+/−anti-PD-L1+/−molPH5201. MC38 tumor-bearing huCD39KI mice were randomized on day 7 and then treated as indicated with 25 mg/kg ip of gemcitabine or PBS, 200 μg ip of anti-mouse PD-L1 antibody or corresponding isotype control antibody and with 400 μg iv of molPH5201 or corresponding IC antibody. Graphs show tumor growth in each individual (n=31/group). CR: Complete Response.

Molecule | IC50 [1] | CD39 enzymatic activity in tissues (CD39 enzymatic activity) | intratumoral adenosine compared to control [2] | number of complete response when combined with gemcitabine, in comparison to gemcitabine alone (MC38 cancer cell line; Experiment 1 (FIG. 6)) | improvement of anti-tumor effect over the comparator named in the value (MC38 cancer cell line; Experiment 1 (FIG. 6), triple vs gemcitabine alone p<0.05 when control group was excluded) | improvement of anti-tumor efficacy over the comparator named in the value (MC38 cancer cell line; Experiment 2 (FIG. 7), difference marginally significant, p<0.1, control group excluded) | number of complete response (CR) on combination (MC38 cancer cell line; Experiment 3 (FIG. 8)) | improvement of anti-tumor effect over the comparator named in the value (MC38 cancer cell line; Experiment 3 (FIG. 8), triple vs gemcitabine alone marginally significant p<0.1, control group excluded) | improvement of the anti-tumor efficacy of gemcitabine (MC38 cancer cell line; gemcitabine +/- molPH5201 experiment (FIG. 5)) | tumor growth compared to the control group (MC38 cancer cell line; gemcitabine +/- molPH5201 experiment (FIG. 5), gemcitabine 25 mg/kg, molPH5201 400 μg/mouse, p<0.001 where significant) | improvement of anti-tumor efficacy over the comparator named in the value (MC38 cancer cell line; pooled analysis of three experiments (FIG. 9), n=31/group, p<0.05 where improved, linear-mixed effect model)
IPH5201 (humanized anti-CD39 antibody having the respective heavy and light chain amino acid sequences of SEQ ID NOS: 10 and 11) (antibody, human IgG1, kappa, V domains shown) VH: QVQLVQSGAEVKKPGASVKVSCKASGYTFTDYNMHWVRQAPGQRLEWIGYIVPLNGGSTFNQKFKGRATITVDTSARTAYMELSSLRSEDTAVYYCARGGTRFAYWGQGTLVTVSS VL: DIVMTQSPDSLAVSLGERATINCRASESVDNFGVSFMYWFQQKPGQPPKLLIYGASNQGSGVPDRFSGSGSGTDFTLTISSLQAEDVAVYYCQQTKEVPYTFGGGTKVEIKR | 2.44 mg/L |  |  |  |  |  |  |  |  |  | 
molPH5201: antibody having the VH and VL of SEQ ID NOS: 8 and 9 and murine constant domains, Fc substituted to eliminate mouse Fcγ receptor binding (antibody, V domains shown, murine constant domains, Fc-silenced) VH: QVQLVQSGAEVKKPGASVKVSCKASGYTFTDYNMHWVRQAPGQRLEWIGYIVPLNGGSTFNQKFKGRATITVDTSARTAYMELSSLRSEDTAVYYCARGGTRFAYWGQGTLVTVSS VL: DIVMTQSPDSLAVSLGERATINCRASESVDNFGVSFMYWFQQKPGQPPKLLIYGASNQGSGVPDRFSGSGSGTDFTLTISSLQAEDVAVYYCQQTKEVPYTFGGGTKVEIK |  | decreased CD39 enzymatic activity | less intratumoral adenosine | increased the number of complete response | Neither anti-PD-L1 nor molPH5201 improved the anti-tumor effect of gemcitabine; also recorded: did not statistically significantly improve gemcitabine+anti-PD-L1 efficacy | tended to improve the anti-tumor efficacy of the combination gemcitabine+anti-PD-L1 | did not increase the number of CR | Neither anti-PD-L1 nor molPH5201 improved the anti-tumor effect of gemcitabine; also recorded: did not statistically significantly improve gemcitabine+anti-PD-L1 efficacy | did not improve the anti-tumor efficacy of gemcitabine | did not modify tumor growth | neither anti-PD-L1 nor molPH5201 improved the anti-tumor effect of gemcitabine; also recorded: improved the anti-tumor efficacy of the gemcitabine+anti-PD-L1 combination
